From paper PMC10871540

Experiments:
[1] = molecular target: UNC-5 ECD displayed on yeast (C. elegans); experiment: flow cytometry on cells
[2] = molecular target: UNC-5 N188K ectodomain on yeast (C. elegans); experiment: flow cytometry on cells
[3] = molecular target: UNC-5 N18K ectodomain on yeast (C. elegans); experiment: flow cytometry on cells
[4] = molecular target: UNC-6ΔC (C. elegans) (UniProt P34710); experiment: SEC
[5] = molecular target: biotinylated UNC-6ΔC (C. elegans) (UniProt P34710); experiment: SPR
Sequence of biotinylated UNC-6ΔC (C. elegans) (P34710 22-461, stated change not applied): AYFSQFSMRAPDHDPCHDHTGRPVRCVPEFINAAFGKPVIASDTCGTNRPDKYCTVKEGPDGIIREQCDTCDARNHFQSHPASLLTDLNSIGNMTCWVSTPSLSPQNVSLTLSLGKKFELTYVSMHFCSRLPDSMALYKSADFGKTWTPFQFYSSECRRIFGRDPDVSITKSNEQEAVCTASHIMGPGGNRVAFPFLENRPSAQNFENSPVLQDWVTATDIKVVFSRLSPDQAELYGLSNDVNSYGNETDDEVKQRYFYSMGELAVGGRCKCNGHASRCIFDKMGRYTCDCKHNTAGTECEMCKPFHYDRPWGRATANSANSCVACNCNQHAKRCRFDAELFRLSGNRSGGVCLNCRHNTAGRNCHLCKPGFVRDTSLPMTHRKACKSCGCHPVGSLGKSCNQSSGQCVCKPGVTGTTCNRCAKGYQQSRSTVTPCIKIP

Sequence of biotinylated UNC-6ΔC (P34710 22-461, stated change not applied): as above
Sequence of UNC-5 ECD displayed on yeast (C. elegans) (Q26261 whole entry, the tested form may be a part): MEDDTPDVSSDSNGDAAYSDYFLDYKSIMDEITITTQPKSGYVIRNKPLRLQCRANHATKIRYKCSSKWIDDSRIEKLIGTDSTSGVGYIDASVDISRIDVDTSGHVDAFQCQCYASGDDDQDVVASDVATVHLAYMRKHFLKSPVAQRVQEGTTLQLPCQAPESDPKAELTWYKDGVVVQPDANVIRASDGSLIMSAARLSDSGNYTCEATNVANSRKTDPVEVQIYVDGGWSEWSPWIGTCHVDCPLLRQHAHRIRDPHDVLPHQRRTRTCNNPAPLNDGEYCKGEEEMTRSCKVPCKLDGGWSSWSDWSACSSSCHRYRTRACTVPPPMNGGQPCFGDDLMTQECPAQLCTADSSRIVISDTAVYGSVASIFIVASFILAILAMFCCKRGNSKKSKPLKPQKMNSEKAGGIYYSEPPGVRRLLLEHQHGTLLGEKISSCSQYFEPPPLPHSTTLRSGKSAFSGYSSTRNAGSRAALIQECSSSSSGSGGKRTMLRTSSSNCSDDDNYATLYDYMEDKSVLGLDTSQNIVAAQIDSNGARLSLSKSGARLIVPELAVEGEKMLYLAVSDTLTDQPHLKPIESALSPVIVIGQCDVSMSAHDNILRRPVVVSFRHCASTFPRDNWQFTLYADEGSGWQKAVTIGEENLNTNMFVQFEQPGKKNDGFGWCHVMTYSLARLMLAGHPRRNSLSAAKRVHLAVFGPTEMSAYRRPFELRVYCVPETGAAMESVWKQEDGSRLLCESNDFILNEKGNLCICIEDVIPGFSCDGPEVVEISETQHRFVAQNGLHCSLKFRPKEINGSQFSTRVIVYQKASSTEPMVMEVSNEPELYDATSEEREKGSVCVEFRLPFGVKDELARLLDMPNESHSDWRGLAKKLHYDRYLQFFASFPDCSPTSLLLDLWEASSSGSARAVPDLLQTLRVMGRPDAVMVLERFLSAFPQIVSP
Sequence of UNC-6ΔC (C. elegans) (P34710 22-461, stated change not applied): as the sequence (P34710 22-461, stated change not applied) above

Substance | KD with heparin [1] [µM] | Kd [2] [µM] | Kd [3] [µM] | stoichiometry N [4] | KD with heparin [5] [µM] | Kd [5] [µM] | fold loss of affinity against WT UNC-5 [5] [fold]
biotinylated UNC-6ΔC (from UniProt P34710 22-461) (ligand) | 0.035 | 0.0164 | 0.0082 |  |  |  | 
UNC-5 ECD (receptor) |  |  |  | 1 | 1.2 | 46 | 
UNC-5 ECD R17E R70E (receptor) |  |  |  |  | 50 to 100 |  | 2
